Columns and labels:
[1] = target: Hfq (Pseudomonas aeruginosa PAO1) (UniProt Q9HUM0); experiment: EMSA; conditions: EMSA: 10 mM Tris-HCl pH 8.0, 10 mM MgCl2, 60 mM NaCl, 10 mM NaH2PO4, 10 mM DTT, 25 ng tRNA in 10 ul, 37 C 30 min; 4% PAGE in Tris-borate; filter binding buffer …
[2] = target: HfqK56A K56A (Pseudomonas aeruginosa PAO1) (UniProt Q9HUM0); experiment: EMSA; conditions: EMSA: 10 mM Tris-HCl pH 8.0, 10 mM MgCl2, 60 mM NaCl, 10 mM NaH2PO4, 10 mM DTT, 25 ng tRNA in 10 ul, 37 C 30 min; 4% PAGE in Tris-borate; filter binding buffer …
[3] = target: HfqY25D Y25D (Pseudomonas aeruginosa PAO1) (UniProt Q9HUM0); experiment: EMSA; conditions: EMSA: 10 mM Tris-HCl pH 8.0, 10 mM MgCl2, 60 mM NaCl, 10 mM NaH2PO4, 10 mM DTT, 25 ng tRNA in 10 ul, 37 C 30 min; 4% PAGE in Tris-borate; filter binding buffer …
[4] = target: Hfq (Pseudomonas aeruginosa PAO1) (UniProt Q9HUM0); experiment: competition; conditions: EMSA: 10 mM Tris-HCl pH 8.0, 10 mM MgCl2, 60 mM NaCl, 10 mM NaH2PO4, 10 mM DTT, 25 ng tRNA in 10 ul, 37 C 30 min; 4% PAGE in Tris-borate; filter binding buffer …
[5] = system: Hfq (Pseudomonas aeruginosa PAO1); experiment: filter binding; conditions: Hfq-hexamer concentration; duplicate; EMSA: 10 mM Tris-HCl pH 8.0, 10 mM MgCl2, 60 mM NaCl, 10 mM NaH2PO4, 10 mM DTT, 25 ng tRNA in 10 ul, 37 C 30 min; 4% PAGE in Tris-borate; filter binding buffer …
[6] = target: Hfq (Pseudomonas aeruginosa PAO1) (UniProt Q9HUM0); experiment: filter binding; conditions: EMSA: 10 mM Tris-HCl pH 8.0, 10 mM MgCl2, 60 mM NaCl, 10 mM NaH2PO4, 10 mM DTT, 25 ng tRNA in 10 ul, 37 C 30 min; 4% PAGE in Tris-borate; filter binding buffer …

Substance | binding [1] | binding [2] | binding [3] | binding [4] | Kd [5] [µM] | Kd [6] [µM]
GGCACAACAACAAUAACAAGCAACGACGAAGACAAUAAAAACAACACGUAACGACUCCAGCACAACAAAAACAAAAUCGCGGAGGCGCAGCUAACUGAUUCUUUUGGAGAGGAGUUGCUGUCGGGACCCGUCCCGCAGCCAGUCGGAAGAAG [CrcZ151 RNA] | binds | binds | binds more weakly | binds | – | –
amiE -134-+20 RNA | – | – | – | – | 0.067 | –
GAUCAGGUCGUGCGCAUCAGCGUCGAUGUCGCGGGACCGAACCUAACGCAUACGUACAGAGCAAAUGGGCUCUCCCGGGGUUACCCGGGAGGGCCUUUUUUCGUCCCGAAAAAAUAACAACAAGAGGUGAUAUCCAUGCGUCACGGCGAUAUUUCCUGCAGAAAAAA [amiE -134-+20 RNA] | binds | binds | no binding | – | – | 0.067
GCGUACAGGGAACACGCAACCCCGAAGGAUCGGGGAAGGGACGUCGCCAGGGAGGCGAUUCAUCAGGAUGAUGACGAGGGACUGAAGAGUGGGCGGGGUAAUACCCCGCCCCUUUUUUUUGCCUGCCGUUUUACUCGUCGCCCUGCAGUUU [RsmZ RNA] | – | – | – | no binding | – | –
